Assays:
HeLa Kyoto [1] = assay: solubility in G1/S (NP-40 vs SDS abundance) (log2 ratio); higher = more soluble; conditions: cell cycle stage: G1/S
HeLa Kyoto [2] = assay: thermal stability score vs G1/S (z-score of summed log2 fold changes over temperatures); higher = more thermally stable than in G1/S
HeLa Kyoto [3] = assay: solubility change mitosis vs G1/S (difference of NP-40 vs SDS log2 ratios) (log2 ratio difference); higher = more soluble in mitosis
HeLa Kyoto [4] = assay: melting temperature (median over replicates), in situ; higher = more thermally stable
[5] = cell cycle stage: early G1 (4.5 h after nocodazole release)
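For melting temperature (median over replicates), in situ in this document: HeLa Kyoto cells synchronized by double thymidine or nocodazole block, proteins quantified by TMT10plex mass spectrometry, three independent biological replicates.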
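For solubility change mitosis vs G1/S (difference of NP-40 vs SDS log2 ratios) in this document: synchronized HeLa Kyoto cells (double thymidine block for G1/S, nocodazole release for mitosis), protein amounts in NP-40 versus SDS lysates quantified by mass spectrometry, three biological replicates.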
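For solubility in G1/S (NP-40 vs SDS abundance) in this document: HeLa Kyoto cells arrested at G1/S by double thymidine block, proteins quantified by TMT10plex mass spectrometry in mild NP-40 versus SDS extracts, three biological replicates.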
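For thermal stability score vs G1/S (z-score of summed log2 fold changes over temperatures) in this document: synchronized HeLa Kyoto cells, proteins quantified by TMT10plex mass spectrometry, three biological replicates, mitosis taken 0.5 h after nocodazole release, G1/S directly after double thymidine block.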

Sequence of AGO2 (chain, as listed by the source): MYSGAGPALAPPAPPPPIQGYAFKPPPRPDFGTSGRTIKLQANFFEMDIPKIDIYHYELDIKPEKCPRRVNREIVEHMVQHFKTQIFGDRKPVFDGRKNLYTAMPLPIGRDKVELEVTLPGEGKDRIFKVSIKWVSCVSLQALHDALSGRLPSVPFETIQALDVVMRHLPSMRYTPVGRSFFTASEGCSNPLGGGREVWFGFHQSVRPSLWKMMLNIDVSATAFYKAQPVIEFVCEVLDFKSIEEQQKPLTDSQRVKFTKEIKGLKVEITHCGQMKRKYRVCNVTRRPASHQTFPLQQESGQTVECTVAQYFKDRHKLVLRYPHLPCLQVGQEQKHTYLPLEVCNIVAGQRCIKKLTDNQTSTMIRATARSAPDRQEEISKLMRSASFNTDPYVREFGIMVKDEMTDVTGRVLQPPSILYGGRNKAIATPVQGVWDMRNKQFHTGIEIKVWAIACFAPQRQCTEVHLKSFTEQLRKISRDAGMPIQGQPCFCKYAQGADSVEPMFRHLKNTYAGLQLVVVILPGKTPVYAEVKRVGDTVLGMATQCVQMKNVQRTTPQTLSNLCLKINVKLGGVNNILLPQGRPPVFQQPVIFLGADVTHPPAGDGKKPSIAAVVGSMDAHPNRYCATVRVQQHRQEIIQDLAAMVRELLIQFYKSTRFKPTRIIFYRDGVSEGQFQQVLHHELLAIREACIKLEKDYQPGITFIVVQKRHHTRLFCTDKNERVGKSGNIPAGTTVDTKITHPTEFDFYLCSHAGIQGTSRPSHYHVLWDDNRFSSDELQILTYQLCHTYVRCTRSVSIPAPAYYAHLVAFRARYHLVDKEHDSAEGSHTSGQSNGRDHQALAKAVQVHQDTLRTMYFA

Row | Substance | solubility in G1/S (log2) (HeLa Kyoto [1]) | thermal stability score (HeLa Kyoto [2]; [5]) | thermal stability score (HeLa Kyoto [2]; cell cycle stage: mitosis) | solubility change mitosis (log2) (HeLa Kyoto [3]) | melting temperature (HeLa Kyoto [4]; cell cycle stage: G1/S) [°C] | melting temperature (HeLa Kyoto [4]; cell cycle stage: mitosis) [°C]
1 | MAETYDFLFKFLVIGSAGTGKSCLLHQFIENKFKQDSNHTIGVEFGSRVVNVGGKTVKLQIWDTAGQERFRSVTRSYYRGAAGALLVYDITSRETYNSLAAWLTDARTLASPNIVVILCGNKKDLDPEREVTFLEASRFAQENELMFLETSALTGENVEEAFLKCARTILNKIDSGELDPERMGSGIQYGDASLRQLRQPRSAQAVAPQPCGC [RAB4B] | 0.181 | -1.18 | -2.73 | -0.29 | 56.8 | 57.9
2 | AGO2 | -0.133 | 2.34 | -0.539 | 0.0495 | 51.5 | 52.6
3 | TATDN1 | 0.194 | -1.11 | -2.1 | -0.119 | 56.1 | 56.4
4 | MAAPEPLRPRLCRLVRGEQGYGFHLHGEKGRRGQFIRRVEPGSPAEAAALRAGDRLVEVNGVNVEGETHHQVVQRIKAVEGQTRLLVVDQETDEELRRRQLTCTEEMAQRGLPPAHDPWEPKPDWAHTGSHSSEAGKKDVSGPLRELRPRLCHLRKGPQGYGFNLHSDKSRPGQYIRSVDPGSPAARSGLRAQDRLIEVNGQNVEGLRHAEVVASIKAREDEARLLVVDPETDEHFKRLRVTPTEEHVEGPLPSPVTNGTSPAQLNGGSACSSRSDLPGSDKDTEDGSAWKQDPFQESGLHLSPTAAEAKEKARAMRVNKRAPQMDWNRKREIFSNF [SLC9A3R2] | 0.422 | -1.69 | -3.57 | -0.0543 | 53.6 | 54.2
5 | MQAERGARGGRGRRPGRGRPGGDRHSERPGAAAAVARGGGGGGGGDGGGRRGRGRGRGFRGARGGRGGGGAPRGSRREPGGWGAGASAPVEDDSDAETYGEENDEQGNYSKRKIVSNWDRYQDIEKEVNNESGESQRGTDFSVLLSSAGDSFSQFRFAEEKEWDSEASCPKQNSAFYVDSELLVRALQELPLCLRLNVAAELVQGTVPLEVPQVKPKRTDDGKGLGMQLKGPLGPGGRGPIFELKSVAAGCPVLLGKDNPSPGPSRDSQKPTSPLQSAGDHLEEELDLLLNLDAPIKEGDNILPDQTSQDLKSKEDGEVVQEEEVCAKPSVTEEKNMEPEQPSTSKNVTEEELEDWLDSMIS [AVEN] | 0.312 | -0.264 | -2.4 | 0.0958 | 52.9 | 52.6
6 | MAAAAAEQQQFYLLLGNLLSPDNVVRKQAEETYENIPGQSKITFLLQAIRNTTAAEEARQMAAVLLRRLLSSAFDEVYPALPSDVQTAIKSELLMIIQMETQSSMRKKVCDIAAELARNLIDEDGNNQWPEGLKFLFDSVSSQNVGLREAALHIFWNFPGIFGNQQQHYLDVIKRMLVQCMQDQEHPSIRTLSARATAAFILANEHNVALFKHFADLLPGFLQAVNDSCYQNDDSVLKSLVEIADTVPKYLRPHLEATLQLSLKLCGDTSLNNMQRQLALEVIVTLSETAAAMLRKHTNIVAQTIPQMLAMMVDLEEDEDWANADELEDDDFDSNAVAGESALDRMACGLGGKLVLPMIKEHIMQMLQNPDWKYRHAGLMALSAIGEGCHQQMEGILNEIVNFVLLFLQDPHPRVRYAACNAVGQMATDFAPGFQKKFHEKVIAALLQTMEDQGNQRVQAHAAAALINFTEDCPKSLLIPYLDNLVKHLHSIMVLKLQELIQKGTKLVLEQVVTSIASVADTAEEKFVPYYDLFMPSLKHIVENAVQKELRLLRGKTIECISLIGLAVGKEKFMQDASDVMQLLLKTQTDFNDMEDDDPQISYMISAWARMCKILGKEFQQYLPVVMGPLMKTASIKPEVALLDTQDMENMSDDDGWEFVNLGDQQSFGIKTAGLEEKSTACQMLVCYAKELKEGFVEYTEQVVKLMVPLLKFYFHDGVRVAAAESMPLLLECARVRGPEYLTQMWHFMCDALIKAIGTEPDSDVLSEIMHSFAKCIEVMGDGCLNNEHFEELGGILKAKLEEHFKNQELRQVKRQDEDYDEQVEESLQDEDDNDVYILTKVSDILHSIFSSYKEKVLPWFEQLLPLIVNLICPHRPWPDRQWGLCIFDDVIEHCSPASFKYAEYFLRPMLQYVCDNSPEVRQAAAYGLGVMAQYGGDNYRPFCTEALPLLVRVIQSADSKTKENVNATENCISAVGKIMKFKPDCVNVEEVLPHWLSWLPLHEDKEEAVQTFNYLCDLIESNHPIVLGPNNTNLPKIFSIIAEGEMHEAIKHEDPCAKRLANVVRQVQTSGGLWTECIAQLSPEQQAAIQELLNSA [IPO5] | 0.177 | 1.46 | 1.41 | -0.0935 | 54 | 53.5
7 | PPIF | 0.731 | 0.427 | -1.83 | 0.14 | 52.2 | 52.1
8 | MVLWILWRPFGFSGRFLKLESHSITESKSLIPVAWTSLTQMLLEAPGIFLLGQRKRFSTMPETETHERETELFSPPSDVRGMTKLDRTAFKKTVNIPVLKVRKEIVSKLMRSLKRAALQRPGIRRVIEDPEDKESRLIMLDPYKIFTHDSFEKAELSVLEQLNVSPQISKYNLELTYEHFKSEEILRAVLPEGQDVTSGFSRIGHIAHLNLRDHQLPFKHLIGQVMIDKNPGITSAVNKINNIDNMYRNFQMEVLSGEQNMMTKVRENNYTYEFDFSKVYWNPRLSTEHSRITELLKPGDVLFDVFAGVGPFAIPVAKKNCTVFANDLNPESHKWLLYNCKLNKVDQKVKVFNLDGKDFLQGPVKEELMQLLGLSKERKPSVHVVMNLPAKAIEFLSAFKWLLDGQPCSSEFLPIVHCYSFSKDANPAEDVRQRAGAVLGISLEACSSVHLVRNVAPNKEMLCITFQIPASVLYKNQTRNPENHEDPPLKRQRTAEAFSDEKTQIVSNT [TRMT5] | 0.289 | -0.613 | -0.00215 | -0.0856 | 57.7 | 56.1
9 | MSADAAAGAPLPRLCCLEKGPNGYGFHLHGEKGKLGQYIRLVEPGSPAEKAGLLAGDRLVEVNGENVEKETHQQVVSRIRAALNAVRLLVVDPETDEQLQKLGVQVREELLRAQEAPGQAEPPAAAEVQGAGNENEPREADKSHPEQRELRPRLCTMKKGPSGYGFNLHSDKSKPGQFIRSVDPDSPAEASGLRAQDRIVEVNGVCMEGKQHGDVVSAIRAGGDETKLLVVDRETDEFFKKCRVIPSQEHLNGPLPVPFTNGEIQKENSREALAEAALESPRPALVRSASSDTSEELNSQDSPPKQDSTAPSSTSSSDPILDFNISLAMAKERAHQKRSSKRAPQMDWSKKNELFSNL [SLC9A3R1] | 0.536 | -1.17 | -0.944 | -0.0214 | 56.5 | 57.1
10 | MGTPASGRKRTPVKDRFSAEDEALSNIAREAEARLAAKRAARAEARDIRMRELERQQKEYSLHSFDRKWGQIQKWLEDSERARYSHRSSHHRPYLGVEDALSIRSVGSHRYDMFKDRSSRLSSLNHSYSHSHGMKKRSSDSHKDLLSGLYFDQRNYSSLRHSKPTSAYYTRQSSSLYSDPLATYKSDRASPTANSGLLRSASLASLYNGGLYNPYGPRTPSECSYYSSRISSARSSPGFTNDDTASIVSSDRASRGRRESVVSAADYFSRSNRRGSVVSEVDDISIPDLSSLDEKSDKQYAENYTRPSSRNSASATTPLSGNSSRRGSGDTSSLIDPDTSLSELRDIYDLKDQIQDVEGRYMQGLKELKESLSEVEEKYKKAMVSNAQLDNEKNNLIYQVDTLKDVIEEQEEQMAEFYRENEEKSKELERQKHMCSVLQHKMEELKEGLRQRDELIEEKQRMQQKIDTMTKEVFDLQETLLWKDKKIGALEKQKEYIACLRNERDMLREELADLQETVKTGEKHGLVIIPDGTPNGDVSHEPVAGAITVVSQEAAQVLESAGEGPLDVRLRKLAGEKEELLSQIRKLKLQLEEERQKCSRNDGTVGDLAGLQNGSDLQFIEMQRDANRQISEYKFKLSKAEQDITTLEQSISRLEGQVLRYKTAAENAEKVEDELKAEKRKLQRELRTALDKIEEMEMTNSHLAKRLEKMKANRTALLAQQ [LRRFIP2] | 0.672 | -3.39 | -4.14 | 0.251 | 53.3 | 53.7
11 | IQGAP3 | -0.395 | 0.51 | 1.12 | 0.191 | 47.8 | 48.1
12 | MSNIYIQEPPTNGKVLLKTTAGDIDIELWSKEAPKACRNFIQLCLEAYYDNTIFHRVVPGFIVQGGDPTGTGSGGESIYGAPFKDEFHSRLRFNRRGLVAMANAGSHDNGSQFFFTLGRADELNNKHTIFGKVTGDTVYNMLRLSEVDIDDDERPHNPHKIKSCEVLFNPFDDIIPREIKRLKKEKPEEEVKKLKPKGTKNFSLLSFGEEAEEEEEEVNRVSQSMKGKSKSSHDLLKDDPHLSSVPVVESEKGDAPDLVDDGEDESAEHDEYIDGDEKNLMRERIAKKLKKDTSANVKSAGEGEVEKKSVSRSEELRKEARQLKRELLAAKQKKVENAAKQAEKRSEEEEAPPDGAVAEYRREKQKYEALRKQQSKKGTSREDQTLALLNQFKSKLTQAIAETPENDIPETEVEDDEGWMSHVLQFEDKSRKVKDASMQDSDTFEIYDPRNPVNKRRREESKKLMREKKERR [CWC27] | 0.0954 | 0.415 | 1.04 | 0.0672 | 47.3 | 49.8
13 | MLPSLQESMDGDEKELESSEEGGSAEERRLEPPSSSHYCLYSYRGSRLAQQRGDSEDGSPSGTNAETPSGDDFSLSLADTNLPSEVEPELRSFIAKRLSRGAVFEGLGNVASVELKIPGYRVGCYYCLFQNEKLLPETVTIDSERNPSEYVVCFLGGSEKGLELFRLELDKYIQGLKNNMNCEARGLESHIKSYLSSWFEDVVCPIQRVVLLFQEKLTFLLHAALSYTPVEVKESDEKTKRDINRFLSVASLQGLIHEGTMTSLCMAMTEEQHKSVVIDCSSSQPQFCNAGSNRFCEDWMQAFLNGAKGGNPFLFRQVLENFKLKAIQDTNNLKRFIRQAEMNHYALFKCYMFLKNCGSGDILLKIVKVEHEEMPEAKNVIAVLEEFMKEALDQSF [C17ORF75] | 0.283 | -0.255 | -0.352 | -0.159 | 51.5 | 51.7
14 | MLRRGSQALRRFSTGRVYFKNKLKLALIGQSLFGQEVYSHLRKEGHRVVGVFTVPDKDGKADPLALAAEKDGTPVFKLPKWRVKGKTIKEVAEAYRSVGAELNVLPFCTQFIPMDIIDSPKHGSIIYHPSILPRHRGASAINWTLIMGDKKAGFSVFWADDGLDTGPILLQRSCDVEPNDTVDALYNRFLFPEGIKAMVEAVQLIADGKAPRIPQPEEGATYEGIQKKENAEISWDQSAEVLHNWIRGHDKVPGAWTEINGQMVTFYGSTLLNSSVPPGEPLEIKGAKKPGLVTKNGLVLFGNDGKALTVRNLQFEDGKMIPASQYFSTGETSVVELTAEEVKVAETIKVIWAGILSNVPIIEDSTDFFKSGASSMDVARLVEEIRQKCGGLQLQNEDVYMATKFEGFIQKVVRKLRGEDQEVELVVDYISKEVNEIMVKMPYQCFINGQFTDADDGKTYDTINPTDGSTICKVSYASLADVDKAVAAAKDAFENGEWGRMNARERGRLMYRLADLLEENQEELATIEALDSGAVYTLALKTHIGMSVQTFRYFAGWCDKIQGSTIPINQARPNRNLTFTKKEPLGVCAIIIPWNYPLMMLAWKSAACLAAGNTLVLKPAQVTPLTALKFAELSVKAGFPKGVINIIPGSGGIAGQRLSEHPDIRKLGFTGSTPIGKQIMKSCAVSNLKKVSLELGGKSPLIIFNDCELDKAVRMGMGAVFFNKGENCIAAGRLFVEESIHDEFVTRVVEEIKKMKIGDPLDRSTDHGPQNHKAHLEKLLQYCETGVKEGATLVYGGRQVQRPGFFMEPTVFTDVEDYMYLAKEESFGPIMVISKFQNGDIDGVLQRANSTEYGLASGVFTRDINKAMYVSEKLEAGTVFINTYNKTDVAAPFGGVKQSGFGKDLGEEALNEYLKTKTVTLEY [ALDH1L2] | 0.0306 | -0.0085 | -0.149 | -0.105 | 51.6 | 51.2

— the supplement of paper PMC5998384
